T1: human VISTA on cells (endogenous on human monocytes and AML3 cells; ectopic full-length on 293T cells) (human, UniProt Q9H7M9 33-311)
T1 sequence (looked up): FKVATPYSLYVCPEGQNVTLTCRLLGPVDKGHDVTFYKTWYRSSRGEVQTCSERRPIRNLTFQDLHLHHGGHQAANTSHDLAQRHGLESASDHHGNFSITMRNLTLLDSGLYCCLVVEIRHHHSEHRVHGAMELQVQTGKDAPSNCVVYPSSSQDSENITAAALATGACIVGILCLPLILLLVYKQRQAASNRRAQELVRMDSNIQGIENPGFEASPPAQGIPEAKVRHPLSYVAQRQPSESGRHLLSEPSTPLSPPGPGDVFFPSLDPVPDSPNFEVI

T2: full length human PSGL-1 (SEQ ID NO: 3) expressed on heparan sulfate-mutant CHO cells (human, UniProt Q14242 42-412)
T2 construct: also called CHO-PSGL-1 cells
T2 sequence: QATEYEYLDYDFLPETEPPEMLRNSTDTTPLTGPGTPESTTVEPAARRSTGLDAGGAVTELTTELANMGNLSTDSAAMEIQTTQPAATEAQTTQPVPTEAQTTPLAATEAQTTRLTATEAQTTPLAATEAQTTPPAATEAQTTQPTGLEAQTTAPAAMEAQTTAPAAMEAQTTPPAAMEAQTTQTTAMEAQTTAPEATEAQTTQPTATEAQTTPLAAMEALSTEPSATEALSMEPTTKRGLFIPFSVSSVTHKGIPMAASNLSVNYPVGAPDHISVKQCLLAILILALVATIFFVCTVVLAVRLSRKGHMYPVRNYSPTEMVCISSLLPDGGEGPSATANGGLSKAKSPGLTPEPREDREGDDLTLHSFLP

T3: hVISTA multimer: monobiotinylated hVISTA ECD (Phe 33-Ala 194, Accession #AAH20568, polyhistidine) loaded on … (human, UniProt Q9H7M9 33-194, limits assumed, monobiotinylated; loaded at a 28:1 molar ratio onto PE-conjugated streptavidin dextramers)
T3 construct: also called hVISTA-loaded dextramers; recombinant VISTA multimer
T3 sequence (looked up): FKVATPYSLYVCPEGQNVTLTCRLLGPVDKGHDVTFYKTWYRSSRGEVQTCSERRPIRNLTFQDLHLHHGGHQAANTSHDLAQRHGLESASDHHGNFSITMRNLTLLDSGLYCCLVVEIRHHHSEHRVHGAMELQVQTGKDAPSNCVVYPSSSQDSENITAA


How the values were obtained:
[1] = molecular target: T1, human VISTA on cells (endogenous on …); assay: cell-based or functional assay
[2] = molecular target: T2, full length human PSGL-1 (SEQ ID NO: 3) …; assay: VISTA-Fc binding to CHO-PSGL-1 cells at pH 6.0
[3] = molecular target: T4, monovalent hVISTA-ECD (amino acids 32-193 of SEQ ID NO: 1 with a 7xHis tail) (human, UniProt Q9H7M9 33-193); assay: SPR, mAb captured on Protein A, hVISTA-ECD analyte, 37 C, pH 6.0
T4 construct: also called huVISTA-His; human VISTA-ECD
Experimental: (§1) Binding kinetics were measured using a Biacore® T100 instrument (GE Healthcare). Protein A (ThermoFisher Scientific catalog #21181) was diluted to 20 μg/ml in 10 mM sodium acetate pH 4.5 and immobilized onto flow cells of a CM5 biosensor following the manufacturer's amine coupling protocol (GE Healthcare), targeting 2,000 RU immobilization density of Protein A per flow cell. The assay was conducted at 37° C. using PBST (137 mM sodium chloride, 2.7 mM potassium chloride, 10 mM phosphate buffer, 0.05% Tween 20) running buffer at pH 7.4, 6.7 and 6.0. Antibodies were diluted to 25 nM in PBST pH 7.4, and were captured across active biosensor flow cells at 5 ul/min for 40 seconds. A concentration series of 100-10 nM monovalent hVISTA-ECD (SEQ ID NO: 325) was prepared in pH 7.4, 6.7 and 6.0 running buffers, and was injected over the captured antibodies at 40 ul/min to measure association and dissociation. Two 15 second injections of 10 mM glycine pH 1.5 were used to regenerate the Protein A capture surface between assay cycles. Rate constants ka (kon) and kd (koff) were derived from reference flow cell and 0 nM blank-subtracted sensorgrams, and were fit to a 1:1 binding model in Biacore® T200 Evaluation Software v.2.0.
(§2) The affinity constant, KD was calculated as the ratio of rate constants koff/kₒₙ for each VISTA antibody. The % Rmax was calculated to compare how pH affects an antibody's binding capacity for VISTA, and represents the measured maximal VISTA binding response relative to the expected maximal VISTA binding response. The % Rmax is defined as the ratio of the reference-subtracted ‘binding’ report point response at the end of the 100 nM VISTA injection for each antibody (Rmax) relative to the expected VISTA binding response (Rexp). Rexp is calculated as Rexp=[(VISTA-ECD molecular weight/mAb molecular weight)×(mAb ‘capture’ report point response (RUs)]×2 binding sites per mAb.

[4] = molecular target: T4, monovalent hVISTA-ECD (amino acids …); assay: as above; remark: listed apart in the source
Experimental: as §1, §2

[5] = molecular target: T4, monovalent hVISTA-ECD (amino acids …); assay: SPR, mAb captured on Protein A, hVISTA-ECD analyte, 37 C, pH 6.7
Experimental: as §1, §2

[6] = molecular target: T4, monovalent hVISTA-ECD (amino acids …); assay: SPR, mAb on Protein A, 37C, pH 6.0
Experimental: (§3) Binding of several preparations of each of the '029 progeny clones and of the parent '029 antibodies, formatted as IgG1.3 antibodies, to human VISTA at pH 6.0 and 7.4 was measured by Surface plasmon resonance (SPR). SPR analysis was performed to measure koff and KD binding affinity measurements for VISTA Abs at acidic and neutral pHs using a Biacore® T100 instrument (GE Healthcare). Protein A (ThermoFisher Scientific catalog #21181) was diluted to 20 μg/ml in 10 mM sodium acetate pH 4.5 and immobilized onto flow cells of a CM5 biosensor following the manufacturer's amine coupling protocol (GE Healthcare), targeting 2,000 RU immobilization density of Protein A per flow cell. SPR experiments were conducted at 37° C. using PBST (137 mM sodium chloride, 2.7 mM potassium chloride, 10 mM phosphate buffer, 0.05% Tween® 20) running buffer at pH 7.4 and 6.0. Antibodies were diluted to 25 nM in PBST pH 7.4, and were captured across active biosensor flow cells at 5 ul/min for 60 seconds. A concentration series of 50-5 nM monovalent hVISTA-ECD (SEQ ID NO: 325) was prepared in pH 7.4 and 6.0 running buffers, and was injected over the captured antibodies at 40 ul/min to measure association and dissociation. Two 15 second injections of 10 mM glycine pH 1.5 were used to regenerate the Protein A capture surface between assay cycles. Rate constants ka (kₒₙ) and kd (koff) were derived from reference flow cell and 0 nM blank-subtracted sensorgrams, and were fit to a 1:1 binding model in Biacore® T200 Evaluation Software v.2.0. The affinity constant, KD was calculated as the ratio of rate constants koff/kₒₙ for each VISTA antibody.

[7] = molecular target: T4, monovalent hVISTA-ECD (amino acids …); assay: SPR, mAb captured on Protein A, hVISTA-ECD analyte, 37 C, pH 6.7; remark: listed apart in the source
Experimental: as §1, §2

[8] = molecular target: T4, monovalent hVISTA-ECD (amino acids …); assay: SPR, mAb on Protein A, 37C, pH 7.4
Experimental: as §3

[9] = molecular target: T3, hVISTA multimer: monobiotinylated …; assay: blocking of VISTA multimer binding to activated human CD4+ T cells, flow cytometry, pH 6.0
Experimental: As a control, activated CD4+ T cells were stained with PE-conjugated streptavidin dextramers that were not loaded with hVISTA. The stained cells were washed with HBSS+MES and acquired on a flow cytometer. Data were analyzed using FlowJo™ software (BD Biosciences). […] Left, from darker gray to lighter, the filled histograms depict binding at pH 7.0, 6.5, 6.4, 6.3, 6.1, and 6.0. Some histograms are labeled with their corresponding pH. Non-VISTA control multimer binding at pH 6.0 is shown as the unfilled histogram. Right, graphed PE mean fluorescence intensities (MFI) of CD4+ T cells stained with hVISTA-loaded dextramers (circles) or with non-loaded dextramers (triangles) at various pH.
This blocking assay was performed as described in Example 4.

[10] = molecular target: T4, monovalent hVISTA-ECD (amino acids …); assay: SPR, mAb captured on Protein A, hVISTA-ECD analyte, 37 C, pH 7.4
Experimental: as §1, §2

Binder	koff [3]	koff [5]	Kd [6]	kon [6]	koff [7]	IC50 (read off the curve) [9]	further results
VISTA.5 (mAb1) (antibody, V domains shown) VH: AVQLQESGPGLVRPSQSLSLTCTVTDYSITSDYAWNWIRQFPGSKLEWLGFIGYSGNTNYNPSLESRISITRHTSKNQFFLHLNSMTTEDTATYYCARSLYGGSHWYFDVWGAGTTVTVSS VL: DIVLTQSPASLAVSLGQRATISCRGSESVEYYGTILMQWYQQKPGQPPKLLIYGASNVESGVPARFSGSGSGTDFSLNIHPVEEDDIAMYFCQQSRKVPWTFGGGTKLEIK	–	–	–	–	–	–	EC50 of AML3 cell viability (Cell Titer Glo), endolysosome-dependent secondary antibody drug conjugate killing assay [1]: 0.485 µg/mL
H2R mutant (Fc fusion, Produced by transient transfection of Expi293 cells; not shown: human IgG1 Fc part and any linker or tag of the VISTA-Fc construct) FKVATPYSLYVCPEGQNVTLTCRLLGPVDKGHDVTFYKTWYRSSRGEVQTCSERRPIRNLTFQDLHLHHGGHQAANTSHDLAQRHGLESASDHHGNFSITMRNLTLLDSGLYCCLVVEIRRRRSEHRVHGAMELQVQTGKDAPSNCVVYPSSSQDSENITAA	–	–	–	–	–	–	binding result [2]: binds
P1-061029.IgG1.3 (antibody, IgG1.3 = effectorless IgG1 (L234A, L235E, G237A); also called P1-061029 (parent); P1-061029 hIgG1.3f) heavy: EVQLVESGGGLVQPGKSLRLSCAASGFTLDDYAMHWVRQAPGKGLEWVSGINWNSANIGYADSVKGRFTISRDNAKNSLYLQMNSLRTEDTALYYCAKVPGYSGGWIDAFDVWGQGTMVTVSSASTKGPSVFPLAPSSKSTSGGTAALGCLVKDYFPEPVTVSWNSGALTSGVHTFPAVLQSSGLYSLSSVVTVPSSSLGTQTYICNVNHKPSNTKVDKRVEPKSCDKTHTCPPCPAPEAEGAPSVFLFPPKPKDTLMISRTPEVTCVVVDVSHEDPEVKFNWYVDGVEVHNAKTKPREEQYNSTYRVVSVLTVLHQDWLNGKEYKCKVSNKALPAPIEKTISKAKGQPREPQVYTLPPSREEMTKNQVSLTCLVKGFYPSDIAVEWESNGQPENNYKTTPPVLDSDGSFFLYSKLTVDKSRWQQGNVFSCSVMHEALHNHYTQKSLSLSPG light: not shown	0.0082 s⁻¹	0.0044 s⁻¹	7.4 nM	780000 M⁻¹ s⁻¹	0.0044 s⁻¹	~0.05 µg/mL	koff [4]: 0.0082 s⁻¹; Kd [8]: 36 nM; kon [8]: 180000 M⁻¹ s⁻¹
P1-068761.IgG1.3 (antibody, IgG1.3; also called P1-068761 hIgG1.3f; P1-0687617) heavy: EVQLVESGGGLVQPGKSLRLSCAASGFTLEDEAMHWVRQAPGKGLEWVSGINWNSEEIGYADSVKGRFTISRDNAKNSLYLQMNSLRTEDTALYYCAKVPGYSHGWIDAEDVWGQGTMVTVSSASTKGPSVFPLAPSSKSTSGGTAALGCLVKDYFPEPVTVSWNSGALTSGVHTFPAVLQSSGLYSLSSVVTVPSSSLGTQTYICNVNHKPSNTKVDKRVEPKSCDKTHTCPPCPAPEAEGAPSVFLFPPKPKDTLMISRTPEVTCVVVDVSHEDPEVKFNWYVDGVEVHNAKTKPREEQYNSTYRVVSVLTVLHQDWLNGKEYKCKVSNKALPAPIEKTISKAKGQPREPQVYTLPPSREEMTKNQVSLTCLVKGFYPSDIAVEWESNGQPENNYKTTPPVLDSDGSFFLYSKLTVDKSRWQQGNVFSCSVMHEALHNHYTQKSLSLSPG light: not shown	–	0.0066 s⁻¹	5.5 nM	280000 M⁻¹ s⁻¹	–	~0.03 µg/mL	–
P1-068767_E100fF_D102V (antibody, human IgG1, kappa, V domains shown, also called P1-070920) VH: EVQLVESGGGLVQPGKSLRLSCAASGFTLEDYAMHWVRQAPGKGLEWVSGIDWNSENIGYADSVKGRFTISRDNAKNSLYLQMNSLRTEDTALYYCAKVPGYSGGWIDAFDVWGQGTMVTVSS VL: not shown	0.0082 s⁻¹	–	–	–	0.0047 s⁻¹	–	koff [10]: 0.0083 s⁻¹

From patent publication US20250129166A1 (Five Prime, published 2025)
